Measurements from patent US20240018502A1.
Residue numbers refer to the chain shown, from its start. In names and notes the source's numbering stands. Each block holds one binder with its values, some of them ahead of it.

Biological target: plasma purified human complement protein C3 (human) (UniProt P01024)
Experiment: cell-based or functional assay

plasma purified human complement protein C3 (human), sequence (P01024 23-667, chain 1 of 2): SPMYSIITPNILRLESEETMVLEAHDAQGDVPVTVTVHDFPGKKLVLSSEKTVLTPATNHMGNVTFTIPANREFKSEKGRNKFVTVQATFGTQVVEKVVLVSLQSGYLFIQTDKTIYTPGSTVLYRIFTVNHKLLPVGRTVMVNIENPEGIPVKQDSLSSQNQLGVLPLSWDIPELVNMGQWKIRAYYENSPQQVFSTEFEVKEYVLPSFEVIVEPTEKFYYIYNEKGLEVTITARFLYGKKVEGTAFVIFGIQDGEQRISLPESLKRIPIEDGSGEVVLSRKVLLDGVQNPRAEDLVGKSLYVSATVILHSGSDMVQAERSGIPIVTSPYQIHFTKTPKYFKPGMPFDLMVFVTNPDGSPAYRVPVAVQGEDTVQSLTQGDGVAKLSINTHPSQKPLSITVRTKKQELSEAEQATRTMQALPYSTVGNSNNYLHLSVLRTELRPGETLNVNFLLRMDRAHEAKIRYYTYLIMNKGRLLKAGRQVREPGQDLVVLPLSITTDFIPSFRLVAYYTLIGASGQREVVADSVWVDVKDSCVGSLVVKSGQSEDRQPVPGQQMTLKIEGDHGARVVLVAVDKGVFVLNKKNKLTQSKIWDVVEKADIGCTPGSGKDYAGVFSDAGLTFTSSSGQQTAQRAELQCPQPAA
plasma purified human complement protein C3 (human), sequence (P01024 672-1663, chain 2 of 2): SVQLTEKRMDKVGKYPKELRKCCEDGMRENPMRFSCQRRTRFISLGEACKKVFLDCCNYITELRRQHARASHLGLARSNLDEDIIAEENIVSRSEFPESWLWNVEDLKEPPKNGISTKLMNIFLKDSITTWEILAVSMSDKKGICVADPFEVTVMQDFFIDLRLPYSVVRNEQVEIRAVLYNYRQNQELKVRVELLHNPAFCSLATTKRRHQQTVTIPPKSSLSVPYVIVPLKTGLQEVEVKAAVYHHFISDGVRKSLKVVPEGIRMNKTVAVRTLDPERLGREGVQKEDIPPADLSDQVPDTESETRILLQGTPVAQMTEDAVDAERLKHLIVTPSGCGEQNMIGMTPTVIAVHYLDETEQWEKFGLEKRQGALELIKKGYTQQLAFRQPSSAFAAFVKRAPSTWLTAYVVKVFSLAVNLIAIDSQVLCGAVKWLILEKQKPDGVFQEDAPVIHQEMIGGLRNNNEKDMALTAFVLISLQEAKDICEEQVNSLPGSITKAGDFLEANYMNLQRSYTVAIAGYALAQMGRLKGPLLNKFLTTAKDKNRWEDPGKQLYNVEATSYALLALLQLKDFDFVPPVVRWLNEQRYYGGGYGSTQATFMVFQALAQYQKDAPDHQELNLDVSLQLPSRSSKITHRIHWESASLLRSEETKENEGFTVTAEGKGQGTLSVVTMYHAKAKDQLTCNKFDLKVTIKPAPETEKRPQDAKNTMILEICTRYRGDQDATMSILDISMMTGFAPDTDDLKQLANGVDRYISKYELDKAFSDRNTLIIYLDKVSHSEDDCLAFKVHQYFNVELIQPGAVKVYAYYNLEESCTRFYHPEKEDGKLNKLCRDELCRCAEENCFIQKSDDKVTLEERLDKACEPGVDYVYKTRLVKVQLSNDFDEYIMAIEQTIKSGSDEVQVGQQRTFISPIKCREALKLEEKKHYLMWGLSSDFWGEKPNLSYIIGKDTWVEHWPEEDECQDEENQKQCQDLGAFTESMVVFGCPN

EC50 hC3 cleavage: 18.4 nM
B1: MTSP-1 protease domain A35T/I41S/Y59F/ins97aV/C122S/Y146F/V183A/Q192G/R235H (enzyme)
chain: VVGGTDADEGEWPWQVSLHTLGQGHSCGASLISPNWLVSAAHCFIDDRGFRYSDPTQWTAFLGLHDQSQRSAPGVQERRLKRIISHPFFNDFVTFDYDIALLELEKPAEYSSMVRPISLPDASHVFPAGKAIWVTGWGHTQFGGTGALILQKGEIRVINQTTCENLLPQQITPRMMCAGFLSGGVDSCGGDSGGPLSSVEADGRIFQAGVVSWGDGCAQRNKPGVYTRLPLFHDWIKENTGV

EC50 hC3 cleavage: 19.1 nM
B2: MTSP-1 protease domain Q38M/I41T/D96M/ins97aH/C122S/G151E (enzyme)
chain: VVGGTDADEGEWPWQVSLHALGMGHTCGASLISPNWLVSAAHCYIDDRGFRYSDPTQWTAFLGLHDQSQRSAPGVQERRLKRIISHPFFNMFHTFDYDIALLELEKPAEYSSMVRPISLPDASHVFPAGKAIWVTGWGHTQYGGTEALILQKGEIRVINQTTCENLLPQQITPRMMCVGFLSGGVDSCQGDSGGPLSSVEADGRIFQAGVVSWGDGCAQRNKPGVYTRLPLFRDWIKENTGV

EC50 hC3 cleavage: 5.24 nM
B3: MTSP-1 protease domain I41S/Y59F/D60bY/ins97aV/C122S/Q192G (enzyme)
chain: B1 chain with T20A, D47Y, F142Y, A178V, H233R

EC50 hC3 cleavage: 54.1 nM
B4: MTSP-1 protease domain Q38H/I41T/D96R/ins97aG/C122S/G151S (enzyme)
chain: B2 chain with M23H, M91R, H93G, E146S

EC50 hC3 cleavage: 32.3 nM
B5: MTSP-1 protease domain I41S/D96K/F97G/ins97aV/T98P/F99L/C122S/Q192V (enzyme)
chain: B2 chain with M23Q, T26S, M91K, F92G, H93V, T94P, F95L, E146G, Q189V

EC50 hC3 cleavage: 29.1 nM
B6: MTSP-1 protease domain I41S/Y59F/F97Y/ins97aV/C122S/Q192G (enzyme)
chain: B1 chain with T20A, F92Y, F142Y, A178V, H233R

EC50 of hC3 cleavage: 22 nM
B7: MTSP-1 Q38H/I41S/D96K/F97G/ins97aV/T98P/F99L/C122S/Q175L/Q192D (enzyme)
chain: B2 chain with M23H, T26S, M91K, F92G, H93V, T94P, F95L, E146G, Q170L, Q189D

EC50 hC3 cleavage: 4.76 nM
B8: MTSP-1 protease domain I41S/D60bY/ins97aV/A112V/C122S/Q192G/Q209L (enzyme)
chain: B1 chain with T20A, F44Y, D47Y, A108V, F142Y, A178V, Q207L, H233R

EC50 hC3 cleavage: 34.1 nM
B9: MTSP-1 protease domain I41S/Y59F/ins97aV/C122S/Q192G/N223D (enzyme)
chain: B1 chain with T20A, F142Y, A178V, N221D, H233R

EC50 of hC3 cleavage: 108 nM
B10: MTSP-1 Q38H/I41S/D96K/F97G/ins97aV/T98P/F99L/C122S/Q192D (enzyme)
chain: B2 chain with M23H, T26S, M91K, F92G, H93V, T94P, F95L, E146G, Q189D

EC50 of hC3 cleavage: 22.6 nM
B11: MTSP-1 D96_F97delinsWYY/T98P/F99L/C122S (enzyme)
chain: B2 chain with M23Q, T26I, M91W, F92Y, H93Y, T94P, F95L, E146G

EC50 of hC3 cleavage: 68.6 nM
B12: MTSP-1 I41S/D96K/F97G/ins97aV/T98P/F99L/C122S/Q175L/Q192D (enzyme)
chain: B2 chain with M23Q, T26S, M91K, F92G, H93V, T94P, F95L, E146G, Q170L, Q189D

EC50 hC3 cleavage: 8.1 nM
B13: MTSP-1 protease domain I41S/D60bY/ins97aV/T98N/C122S/Q192H (enzyme)
chain: B2 chain with M23Q, T26S, D47Y, M91D, H93V, T94N, E146G, Q189H

EC50 hC3 cleavage: 49.7 nM
B14: MTSP-1 protease domain I41S/ins97aV/C122S/N164D/Q192G/R235L (enzyme)
chain: B1 chain with T20A, F44Y, F142Y, N159D, A178V, H233L

EC50 hC3 cleavage: 46.4 nM
B15: MTSP-1 protease domain I41S/ins97aV/C122S/N164D/Q192G/R235H (enzyme)
chain: B1 chain with T20A, F44Y, F142Y, N159D, A178V

EC50 hC3 cleavage: 195 nM
B16: MTSP-1 protease domain I41S/D96K/F97G/ins97aV/T98P/F99L/C122S/Q175H/Q192D (enzyme)
chain: B2 chain with M23Q, T26S, M91K, F92G, H93V, T94P, F95L, E146G, Q170H, Q189D

EC50 hC3 cleavage: 17.5 nM
B17: MTSP-1 protease domain I41A/Y60gW/N95D/D96F/F97G/F99L/C122S/Q175H/Q192A (enzyme)
chain: VVGGTDADEGEWPWQVSLHALGQGHACGASLISPNWLVSAAHCYIDDRGFRWSDPTQWTAFLGLHDQSQRSAPGVQERRLKRIISHPFFDFGTLDYDIALLELEKPAEYSSMVRPISLPDASHVFPAGKAIWVTGWGHTQYGGTGALILQKGEIRVINQTTCENLLPQHITPRMMCVGFLSGGVDSCAGDSGGPLSSVEADGRIFQAGVVSWGDGCAQRNKPGVYTRLPLFRDWIKENTGV

EC50 hC3 cleavage: 63.8 nM
B18: MTSP-1 protease domain I41D/F97T/F99M/C122S/Q192V/D217M (enzyme)
chain: B17 chain with A26D, W52Y, D90N, F91D, G92T, L94M, H169Q, A188V, D214M

EC50 of hC3 cleavage: 85.7 nM
B19: MTSP-1 C122S/G151N/G193A (enzyme)
chain: B17 chain with A26I, W52Y, D90N, F91D, G92F, L94F, G145N, H169Q, A188Q, G189A

EC50 of hC3 cleavage: 119 nM
B20: MTSP-1 C122S/G193E (enzyme)
chain: B17 chain with A26I, W52Y, D90N, F91D, G92F, L94F, H169Q, A188Q, G189E

EC50 of hC3 cleavage: 6.33 nM
B21: MTSP-1 F97E/F99L/C122S/D217I/K224N (enzyme)
chain: B17 chain with A26I, W52Y, D90N, F91D, G92E, H169Q, A188Q, D214I, K221N

EC50 of hC3 cleavage: 59.6 nM
B22: MTSP-1 H40R/I41H/C122S/G151N (enzyme)
chain: B17 chain with H25R, A26H, W52Y, D90N, F91D, G92F, L94F, G145N, H169Q, A188Q

EC50 of hC3 cleavage: 51.7 nM
B23: MTSP-1 H40R/I41H/F97E/C122S (enzyme)
chain: B17 chain with H25R, A26H, W52Y, D90N, F91D, G92E, L94F, H169Q, A188Q

EC50 hC3 cleavage: 4.18 nM
B24: MTSP-1 protease domain I41G/F97R/F99L/C122S/G151N/Q175L/Q192S/D217V (enzyme)
chain: B17 chain with A26G, W52Y, D90N, F91D, G92R, G145N, H169L, A188S, D214V

EC50 of hC3 cleavage: 9.74 nM
B25: MTSP-1 I41G/F97V/F99L/C122S/G151Q/Q175M/Q192A/D217L (enzyme)
chain: B17 chain with A26G, W52Y, D90N, F91D, G92V, G145Q, H169M, D214L

EC50 hC3 cleavage: 24.2 nM
B26: MTSP-1 protease domain I41T/F97L/F99L/C122S/G151N/Q175S/Q192S/D217W (enzyme)
chain: B17 chain with A26T, W52Y, D90N, F91D, G92L, G145N, H169S, A188S, D214W

EC50 hC3 cleavage: 11.9 nM
B27: MTSP-1 protease domain I41S/F97L/F99L/C122S/G151N/Q192G/D217V (enzyme)
chain: B17 chain with A26S, W52Y, D90N, F91D, G92L, G145N, H169Q, A188G, D214V

EC50 hC3 cleavage: 17.6 nM
B28: MTSP-1 protease domain I41A/Y60gW/F99L/C122S/Q175T/Q192A (enzyme)
chain: B17 chain with D90N, F91D, G92F, H169T

EC50 of hC3 cleavage: 12.1 nM
B29: MTSP-1 I41T/F97W/F99L/C122S/G151N/Q175M/Q192G/D217L (enzyme)
chain: B17 chain with A26T, W52Y, D90N, F91D, G92W, G145N, H169M, A188G, D214L

EC50 of hC3 cleavage: 110 nM
B30: MTSP-1 H40R/I41H/F97D/C122S/G151N (enzyme)
chain: B17 chain with H25R, A26H, W52Y, D90N, F91D, G92D, L94F, G145N, H169Q, A188Q

EC50 of hC3 cleavage: 2.84 nM
B31: MTSP-1 I41G/F97I/F99L/C122S/G151L/Q175M/Q192S/D217V (enzyme)
chain: B17 chain with A26G, W52Y, D90N, F91D, G92I, G145L, H169M, A188S, D214V

EC50 of hC3 cleavage: 7.75 nM
B32: MTSP-1 I41G/F97L/F99L/C122S/Q175A/Q192T/D217V (enzyme)
chain: B17 chain with A26G, W52Y, D90N, F91D, G92L, H169A, A188T, D214V

EC50 of hC3 cleavage: 6.84 nM
B33: MTSP-1 I41G/F97S/F99L/C122S/G151N/Q175L/Q192G/D217I (enzyme)
chain: B17 chain with A26G, W52Y, D90N, F91D, G92S, G145N, H169L, A188G, D214I

EC50 hC3 cleavage: 11.2 nM
B34: MTSP-1 protease domain I41S/F97S/F99L/C122S/G151N/Q175L/Q192A/D217L (enzyme)
chain: B17 chain with A26S, W52Y, D90N, F91D, G92S, G145N, H169L, D214L

EC50 of hC3 cleavage: 35.4 nM
B35: MTSP-1 H40R/I41H/F97D/F99L/C122S/Q192G (enzyme)
chain: B17 chain with H25R, A26H, W52Y, D90N, F91D, G92D, H169Q, A188G

EC50 of hC3 cleavage: 44.7 nM
B36: MTSP-1 C122S/G193A (enzyme)
chain: B17 chain with A26I, W52Y, D90N, F91D, G92F, L94F, H169Q, A188Q, G189A

EC50 hC3 cleavage: 3.19 nM
B37: MTSP-1 protease domain I41S/F99L/C122S/G151N/Q175M/Q192G/D217V (enzyme)
chain: B17 chain with A26S, W52Y, D90N, F91D, G92F, G145N, H169M, A188G, D214V

EC50 of hC3 cleavage: 78.1 nM
B38: MTSP-1 F97D/F99L/C122S/Q192G (enzyme)
chain: B17 chain with A26I, W52Y, D90N, F91D, G92D, H169Q, A188G

EC50 of hC3 cleavage: 5.25 nM
B39: MTSP-1 Q38H/I41S/D60bT/F60eS/Y60gW/D96K/F97G/ins97aV/T98P/F99L/C122S/Q175L/Q192D (enzyme)
chain: VVGGTDADEGEWPWQVSLHALGHGHSCGASLISPNWLVSAAHCYIDTRGSRWSDPTQWTAFLGLHDQSQRSAPGVQERRLKRIISHPFFNKGVPLDYDIALLELEKPAEYSSMVRPISLPDASHVFPAGKAIWVTGWGHTQYGGTGALILQKGEIRVINQTTCENLLPQLITPRMMCVGFLSGGVDSCDGDSGGPLSSVEADGRIFQAGVVSWGDGCAQRNKPGVYTRLPLFRDWIKENTGV

EC50 of hC3 cleavage: 19.9 nM
B40: MTSP-1 Q38H/I41S/D60bT/F60eS/Y60gW/D96K/F97G/ins97aV/T98P/F99L/C122S/G151H/Q192D (enzyme)
chain: B39 chain with G146H, L170Q
